Blank lines part the entries; values can stand above or below the substance they belong to.
How the values were obtained:
[1] = target: CBKP2 complex (PaCgi121/PaBud32/PaKae1/PaPcc2) (Pyrococcus abyssi | Pyrococcus abyssi GE5) (UniProt Q9UXT7); assay: SEC-SAXS
[2] = target: CBKP1 complex (PaCgi121/PaBud32/PaKae1/PaPcc1) (Pyrococcus abyssi) (UniProt Q9UXT7); assay: SEC-SAXS
[3] = target: PaPcc2 with C-terminal hexa-histidine tag (Pyrococcus abyssi GE5); assay: SEC

Substance: CBKP2 complex (PaCgi121/PaBud32/PaKae1/PaPcc2) (from UniProt Q9UXT7 1-324)
stoichiometry N [1]: 2

Substance: CBKP1 complex (PaCgi121/PaBud32/PaKae1/PaPcc1) (from UniProt Q9UXT7 1-324)
stoichiometry N [2]: 2

stoichiometry N [3]: 2
Substance: PaPcc2 with C-terminal hexa-histidine tag (natural protein)
